Reference: PMC4368157, “The Interaction Affinity between Vascular Cell Adhesion Molecule-1 (VCAM-1) and Very Late Antigen-4 (VLA-4) Analyzed by Quantitative FRET” (PLoS ONE, 2015)
Blank lines part the entries; values can stand above or below the binder they belong to.

Key:
[1] = molecular target: T1, Alexa Fluor 488-VLA-4 conjugate (human recombinant Very late antigen-4, soluble form) (human, UniProt P13612 35-977; P05556 21-728, Alexa Fluor 488 on aliphatic amine groups (amine terminus, ε-amino groups of lysines); F/P ratio of the conjugate 3.0 ± 0.8; sites and chain not stated | Alexa Fluor 488 on aliphatic amine groups …); assay: FRET or BRET; in solution, steady state; donor AF488-VLA-4 fixed at 350 nM, acceptor AF546-VCAM-1 titrated up to 850 nM; PBS with 1 mM EGTA, 2 mM MgCl2, pH 7.4, 30 minutes, 96-well plate; excitation 470 nm; fit assumes one-to-one interaction; conditions: both partners purified
T1 construct: integrin α4 subunit (CD49d) of VLA-4, human, recombinant soluble form; integrin β1 subunit (CD29) of VLA-4, human, recombinant soluble form; also called AF488-VLA-4; A488-VLA-4; source: bought: R&D Systems; conjugated with Alexa Fluor 488 succinimidyl ester, dialysed

[2] = molecular target: T2, human recombinant VLA-4 (Very late antigen-4, soluble form, without fluorophore) (human, UniProt P13612 35-977; P05556 21-728); assay: SPR; BIAcore 3000, CM5 chip; VCAM-1Fc captured by immobilised anti-human IgG (Fc); VLA-4 flowed at 100, 150, 400, 450 and 500 nM; PBS with 1 mM EGTA and 2 mM Mg2+; 5 μl/min; Langmuir model; conditions: both partners purified
T2 construct: integrin α4 subunit (CD49d) of VLA-4, human, recombinant soluble form; integrin β1 subunit (CD29) of VLA-4, human, recombinant soluble form; Same bought protein as in m1, not conjugated; also called CD49d/CD29; α4β1; source: bought: R&D Systems
T2 sequence (P13612 35-977, chain 1 of 2): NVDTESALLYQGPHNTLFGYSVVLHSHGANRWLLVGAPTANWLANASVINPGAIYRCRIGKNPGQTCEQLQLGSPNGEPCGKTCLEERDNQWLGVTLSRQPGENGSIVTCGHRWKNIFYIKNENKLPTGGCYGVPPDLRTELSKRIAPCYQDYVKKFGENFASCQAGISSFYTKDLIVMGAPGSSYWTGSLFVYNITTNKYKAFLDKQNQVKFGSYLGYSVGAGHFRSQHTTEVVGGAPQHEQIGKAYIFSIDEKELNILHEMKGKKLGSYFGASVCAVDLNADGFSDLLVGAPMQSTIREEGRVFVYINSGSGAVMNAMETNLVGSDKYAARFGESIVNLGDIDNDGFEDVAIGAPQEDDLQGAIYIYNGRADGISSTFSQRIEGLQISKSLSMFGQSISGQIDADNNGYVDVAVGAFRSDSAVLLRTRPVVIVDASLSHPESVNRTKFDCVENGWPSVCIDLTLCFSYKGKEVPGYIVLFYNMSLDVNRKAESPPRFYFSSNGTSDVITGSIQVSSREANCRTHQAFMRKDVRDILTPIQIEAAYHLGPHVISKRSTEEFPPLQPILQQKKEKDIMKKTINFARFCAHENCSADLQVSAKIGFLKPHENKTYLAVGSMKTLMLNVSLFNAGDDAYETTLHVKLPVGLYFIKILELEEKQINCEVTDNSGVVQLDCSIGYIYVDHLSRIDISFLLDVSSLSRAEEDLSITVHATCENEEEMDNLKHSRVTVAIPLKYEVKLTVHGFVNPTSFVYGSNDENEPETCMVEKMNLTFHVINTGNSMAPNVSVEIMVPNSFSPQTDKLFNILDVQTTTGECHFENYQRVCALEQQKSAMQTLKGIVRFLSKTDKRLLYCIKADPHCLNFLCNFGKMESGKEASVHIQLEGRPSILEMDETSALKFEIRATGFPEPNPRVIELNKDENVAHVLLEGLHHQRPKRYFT
T2 sequence (P05556 21-728, chain 2 of 2): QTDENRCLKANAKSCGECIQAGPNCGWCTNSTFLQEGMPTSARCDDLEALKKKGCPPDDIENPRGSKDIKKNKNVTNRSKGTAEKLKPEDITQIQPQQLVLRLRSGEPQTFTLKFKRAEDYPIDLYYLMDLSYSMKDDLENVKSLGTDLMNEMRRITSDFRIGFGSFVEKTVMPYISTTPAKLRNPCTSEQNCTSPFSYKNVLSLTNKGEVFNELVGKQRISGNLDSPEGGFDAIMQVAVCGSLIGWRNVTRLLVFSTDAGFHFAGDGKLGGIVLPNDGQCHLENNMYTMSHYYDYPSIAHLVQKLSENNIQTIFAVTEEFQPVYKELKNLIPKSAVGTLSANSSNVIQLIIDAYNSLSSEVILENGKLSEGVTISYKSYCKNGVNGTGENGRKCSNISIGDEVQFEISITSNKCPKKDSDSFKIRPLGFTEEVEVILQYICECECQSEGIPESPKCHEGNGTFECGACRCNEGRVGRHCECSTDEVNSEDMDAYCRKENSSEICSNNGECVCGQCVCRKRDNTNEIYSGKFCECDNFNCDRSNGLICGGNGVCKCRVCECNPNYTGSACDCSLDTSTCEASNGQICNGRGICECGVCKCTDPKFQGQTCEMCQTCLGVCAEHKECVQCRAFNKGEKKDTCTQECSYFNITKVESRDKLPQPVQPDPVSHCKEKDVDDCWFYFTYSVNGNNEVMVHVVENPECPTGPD

T1 sequence (P13612 35-977, chain 1 of 2): as the sequence (P13612 35-977, chain 1 of 2) above
T1 sequence (P05556 21-728, chain 2 of 2): as the sequence (P05556 21-728, chain 2 of 2) above

Kd [1]: 41.8 nM
B1: Alexa Fluor 546-VCAM-1 conjugate (human recombinant Vascular Cell Adhesion Molecule-1, soluble form) (ligand, UniProt P19320 25-698, looked up)
chain: FKIETTPESRYLAQIGDSVSLTCSTTGCESPFFSWRTQIDSPLNGKVTNEGTTSTLTMNPVSFGNEHSYLCTATCESRKLEKGIQVEIYSFPKDPEIHLSGPLEAGKPITVKCSVADVYPFDRLEIDLLKGDHLMKSQEFLEDADRKSLETKSLEVTFTPVIEDIGKVLVCRAKLHIDEMDSVPTVRQAVKELQVYISPKNTVISVNPSTKLQEGGSVTMTCSSEGLPAPEIFWSKKLDNGNLQHLSGNATLTLIAMRMEDSGIYVCEGVNLIGKNRKEVELIVQEKPFTVEISPGPRIAAQIGDSVMLTCSVMGCESPSFSWRTQIDSPLSGKVRSEGTNSTLTLSPVSFENEHSYLCTVTCGHKKLEKGIQVELYSFPRDPEIEMSGGLVNGSSVTVSCKVPSVYPLDRLEIELLKGETILENIEFLEDTDMKSLENKSLEMTFIPTIEDTGKALVCQAKLHIDDMEFEPKQRQSTQTLYVNVAPRDTTVLVSPSSILEEGSSVNMTCLSQGFPAPKILWSRQLPNGELQPLSENATLTLISTKMEDSGVYLCEGINQAGRSRKEVELIIQVTPKDIKLTAFPSESVKEGDTVIISCTCGNVPETWIILKKKAETGDTVLKSIDGAYTIRKAQLKDAGVYECESKNKVGSQLRSLTLDVQGRENNKDYFSPE
modifications: Alexa Fluor 546 on aliphatic amine groups (amine terminus, ε-amino groups of lysines); F/P ratio 0.60 ± 0.02; sites not stated
notes: Vascular Cell Adhesion Molecule-1 (VCAM-1/CD106), human, recombinant soluble form; also called AF546-VCAM-1; CD106; source: bought: R&D Systems; conjugated with Alexa Fluor 546 succinimidyl ester, dialysed

Kd [2]: 39.6 ± 1.78 nM
B2: human recombinant VCAM-1 Fc chimera (Fc fusion, UniProt P19320 25-698, looked up)
chain: B1 chain
notes: Vascular Cell Adhesion Molecule-1 (VCAM-1/CD106), human, recombinant soluble form fused to Fc; source: bought: R&D Systems
